Assay results taken from FireProtDB (doi:10.1006/jmbi.2001.4956).

B1: Guanyl-specific ribonuclease Sa3, P30289 (parent)
chain: MRIPPRLVALAGAAAVAATLIAGPVAAAAPASHAVAASSAASASVKAVGRVCYSALPSQAHDTLDLIDEGGPFPYSQDGVVFQNREGLLPAHSTGYYHEYTVITPGSPTRGARRIITGQQWQEDYYTADHYASFRRVDFAC
B2: Guanyl-specific ribonuclease Sa, P05798 (parent)
chain: DVSGTVCLSALPPEATDTLNLIASDGPFPYSQDGVVFQNRESVLPTQSYGYYHEYTVITPGARTRGTRRIITGEATQEDYYTGDHYATFSLIDQTC

Variants of: B1
Conditions: Kitasatospora aureofaciens; pH 7; 25 °C; Thermal; CD; MOPS 30 mM; reversible: yes(>95 %); structure 1MGR; whole UniProt chain shown

First: Y75F
Second: Y126F
The “ddG of mutation (higher = less stable)” value of the first is lower: -0.5 kcal/mol for the first, 1 kcal/mol for the second.

First: Y131F
Second: Y100F
The “ddG of mutation (higher = less stable)” value of the first is lower: 0 kcal/mol for the first, 0.7 kcal/mol for the second.

Going from Y125F to Y97F, the “ddG of mutation (higher = less stable)” value rises from 1.5 kcal/mol to 2.1 kcal/mol.

Variants of: B2
Conditions: Kitasatospora aureofaciens; pH 7; 25 °C; Thermal; CD; MOPS 30 mM; reversible: yes(>95 %); structure 1RGG; whole UniProt chain shown

Going from Y80F to Y81F, the “ddG of mutation (higher = less stable)” value falls from 1.5 kcal/mol to 1.2 kcal/mol.

Going from Y86F to Y49F, the “ddG of mutation (higher = less stable)” value falls from 0.3 kcal/mol to 0.2 kcal/mol.

Going from Y30F to Y55F, the “ddG of mutation (higher = less stable)” value rises from -0.4 kcal/mol to 0.6 kcal/mol.

In the case of Y52F, the “ddG of mutation (higher = less stable)” value is reported as 3.6 kcal/mol.
